The values below come from patent publication US20210087295A1 (University of Pennsylvania, published 2021).

The target of experiment [1] is T1, murine fibroblast activation protein (FAP) (mouse, UniProt P97321 1-761).
T1 construct: whole, on cells; also called mouse FAP; muFAP
T1 sequence (looked up): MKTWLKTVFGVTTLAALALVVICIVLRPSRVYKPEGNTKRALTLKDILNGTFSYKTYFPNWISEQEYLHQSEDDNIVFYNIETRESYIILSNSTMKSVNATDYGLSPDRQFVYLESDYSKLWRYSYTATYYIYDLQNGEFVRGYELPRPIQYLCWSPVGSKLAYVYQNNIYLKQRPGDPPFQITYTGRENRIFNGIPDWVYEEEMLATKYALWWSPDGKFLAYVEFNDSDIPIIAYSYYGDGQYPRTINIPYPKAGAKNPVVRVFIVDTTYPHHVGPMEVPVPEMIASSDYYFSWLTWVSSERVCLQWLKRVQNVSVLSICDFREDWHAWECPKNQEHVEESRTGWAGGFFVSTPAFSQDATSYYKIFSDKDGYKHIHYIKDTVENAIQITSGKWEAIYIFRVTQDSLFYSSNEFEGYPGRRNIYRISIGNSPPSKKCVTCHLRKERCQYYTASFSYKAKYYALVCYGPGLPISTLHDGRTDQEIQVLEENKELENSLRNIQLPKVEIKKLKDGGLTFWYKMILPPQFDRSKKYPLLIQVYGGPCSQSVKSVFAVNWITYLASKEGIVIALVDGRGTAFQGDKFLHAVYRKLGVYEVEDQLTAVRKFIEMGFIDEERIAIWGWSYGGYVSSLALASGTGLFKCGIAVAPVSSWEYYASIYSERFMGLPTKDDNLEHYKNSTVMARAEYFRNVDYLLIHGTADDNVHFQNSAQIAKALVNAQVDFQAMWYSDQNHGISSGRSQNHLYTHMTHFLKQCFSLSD
Put plainly: flow cytometry, hybridoma supernatant on BALB/c 3T3 cells with a murine FAP transgene. As to the method:
(§1) BALB/c 3T3 cells expressing full-length canine FAP were used to immunize 14 week old BALB/c.FAP^{-/-} mice. All injections were given intraperitoneally and consisted of 1×10⁷ cells in 0.5 ml sterile PBS. An initial immunization was followed by boosts on days 14 and 28; animals were then bled on day 42 followed a boost on day 56, bleeding on day 63, and three more boosts on days 70, 217, and 238. On day 241, […] spleens were harvested, a single cell suspension prepared, and splenocytes fused with sp2/0 cells by the UPENN Hybridoma Core Facility. Hybridoma supernatant were initially screened by FACS on MC KOSA parental (FAP null) vs. canine FAP-transgene expressing MC KOSA.K9FAP using hybridoma supernatants as the primary antibodies and AF488 goat anti-mouse IgG as a secondary. Clone 4G5 was identified as reactive to transduced cells but not parental cells and screened on additional cells to confirm reactivity with FAP expressing but not FAP-negative cells: Human primary fibroblasts, BALB/c 3T3 expressing murine or human FAP transgenes, canine primary fibroblasts, SK KOSA (FAP expressing), and BALB/c 3T3 (FAP negative) cells. 4G5 was then determined to be an IgG1k isotype antibody using Thermo Fisher Rapid ELISA Mouse mAb Isotyping Kit #37503.
(§2) BALB/c 3T3 fibroblast cells transduced to express full-length canine FAP were used to immunize 14 week old BALB/c FAP^{-/-} mice. […]
For orientation: In flow cytometry, cells or beads pass a laser one at a time.

Experiment [2] deals with T2, human fibroblast activation protein (FAP) (human, UniProt Q12884 1-760).
T2 construct: whole, on cells; also called human FAP; huFAP
T2 sequence (looked up): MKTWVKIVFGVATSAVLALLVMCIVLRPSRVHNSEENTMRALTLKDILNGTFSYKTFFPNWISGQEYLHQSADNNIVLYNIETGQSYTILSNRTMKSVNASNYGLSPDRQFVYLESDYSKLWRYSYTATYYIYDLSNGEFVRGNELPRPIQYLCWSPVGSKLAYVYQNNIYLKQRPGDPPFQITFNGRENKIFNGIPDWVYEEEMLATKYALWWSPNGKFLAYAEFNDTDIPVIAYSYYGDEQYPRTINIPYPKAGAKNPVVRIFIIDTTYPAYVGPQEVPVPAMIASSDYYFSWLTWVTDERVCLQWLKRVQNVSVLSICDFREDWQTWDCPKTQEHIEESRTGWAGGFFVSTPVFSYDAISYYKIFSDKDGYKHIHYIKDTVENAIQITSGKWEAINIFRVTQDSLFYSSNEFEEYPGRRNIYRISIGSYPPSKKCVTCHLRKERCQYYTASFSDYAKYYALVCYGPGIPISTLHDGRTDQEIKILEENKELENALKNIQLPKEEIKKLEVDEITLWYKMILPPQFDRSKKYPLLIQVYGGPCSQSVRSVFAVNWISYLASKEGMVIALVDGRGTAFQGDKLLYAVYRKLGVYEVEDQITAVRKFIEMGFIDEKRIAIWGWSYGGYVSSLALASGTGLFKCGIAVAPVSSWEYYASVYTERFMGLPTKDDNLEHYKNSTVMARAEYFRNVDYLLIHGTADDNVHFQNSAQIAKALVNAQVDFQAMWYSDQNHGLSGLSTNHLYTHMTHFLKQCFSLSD
The experiment in a line: flow cytometry, hybridoma supernatant on human primary fibroblasts and BALB/c 3T3 cells with a human FAP transgene. On the procedure:
as §1, §2

B1: clone 4G5 anti-FAP antibody (antibody, mouse IgG1, V domains shown)
VH: QVQLQQPGAELVKPGASVKLSCKASGYTITSYSLHWVKQRPGQGLEWIGEINPANGDHNFSEKFEIKATLTVDSSSNTAFMQLSRLTSEDSAVYYCTRLDDSRFHWYFDVWGAGTTVTVSS
VL: QIVLTQSPALMSASPGEKVTMTCTASSSVSYMYWYQQKPRSSPKPWIFLTSNLASGVPARFSGRGSGTSFSLTISSMEAEDAATYYCQQWSGYPPITFGSGTKLEIK
notes: Mouse IgG1 kappa antibody from a hybridoma, used as hybridoma supernatant in flow cytometry; also called 4G5 immunoglobulin; monoclonal 4G5 antibody
In the case of B1, the binding result in experiment [1] and in experiment [2] was “binds” each time.
